Results on 2 substances are retold here after publication PMC5577609.

In test [1] the target is HRL40-1 (isolectin of Halimeda renschii lectin HRL40) (Halimeda renschii). As to the kind of experiment: LC-ESI-MS of the intact and of the reduced, S-pyridylethylated protein; LTQ Orbitrap XL; intact isolectin against the subunit mass derived after reduction with tri-n-butylphosphine and alkylation with 4-vinylpyridine.
Test [2] deals with influenza virus envelope glycoprotein hemagglutinin (influenza virus (strain not stated for the immobilised hemagglutinin)). In words: SPR; Biacore X100; […], HBS-N (10 mM HEPES, 150 mM NaCl, pH 7.4); […], dissociation 600 s; Langmuir 1:1 fit.
The target of test [3] is Halimeda renschii lectin HRL40 (Halimeda renschii). In words: SDS-PAGE, non-reducing and reducing; 12% gel; samples heated at 100 C in 0.2% SDS with or without 2% 2-mercaptoethanol; about 40 kDa non-reduced, 10 kDa reduced.

Broadly, the stoichiometry N is a count of units in the complex or per binding partner. Turning to “HRL40-1 (isolectin of Halimeda renschii lectin HRL40) (natural protein)”, the stoichiometry N in test [1] was 4.
In general, Kd refers to the constant that tells how readily two partners part at equilibrium. A high value points to a looser complex. The term koff denotes a measure of how fast the partners let go of each other. Higher therefore signals fast dissociation. As a reminder, the kon is a measure of how fast the partners come together. Read a high kon as faster complex formation. In the case of “Halimeda renschii lectin HRL40 (natural protein)”, in test [2], the Ka worked out at 2.71e+10 M⁻¹, the dissociation constant (Kd) is 0.0369 nM, the koff turned out to be 2.63e-06 s⁻¹ and the on-rate constant (kon) stood at 71400 M⁻¹ s⁻¹. This substance had a stoichiometry N in test [3] of 4.
